Laboratory results taken from the supplement of paper PMC9732359.
± gives the uncertainty stated by the source.

Assay: protein stability index of a GFP-peptide fusion (yeast GPS) (PSI 1-4); higher = more stable; sorted into four equal gates, so the index is relative within each strain
Conditions: pdr5∆
How it was run: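 Tiled 17-residue yeast protein peptides were fused downstream of GFP in a plasmid that also expresses Cherry, and the pooled library was carried in yeast. Mid-log cultures in leucine-free medium were sorted into four equal gates by GFP/Cherry fluorescence ratio, and plasmids from each gate were PCR-amplified and Illumina-sequenced, with reads assigned to strains by barcodes. The protein stability index for each peptide was each gate's read frequency times its gate number, summed.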

| Sequence | protein stability index |
| --- | --- |
| AGVEDVYTQSNGKTRTL [RPS2] | 3.21 ± 0.084 |
| AHEIIKREEKAMTIYWD [CDC53] | 2.18 ± 0.064 |
| AHNKPSLFSKIKTFFTQ [YAR002W/NUP60] | 2.85 ± 0.076 |

Same assay, conditions: san1∆

| Sequence | protein stability index |
| --- | --- |
| AAAAVCEKWAASSWAKK [RPL14A] | 2.56 ± 0.056 |
| AAAEIADEPVKASLLLH [FAS2] | 2.75 ± 0.19 |
| AAFEKRYRVDLLNTDHT [RPO21] | 2.89 ± 0.058 |
| AAGKRISHIEKRIESLQ [SMC1] | 2.93 ± 0.073 |
| AAGNASSLPPGEILLPD [SNF5] | 3.1 ± 0.06 |
| AAIRQPTRYVLIRNVGT [POP1] | 1.77 ± 0.11 |
| AALRTVKSLVDNMITGV [RPL9A] | 2.99 ± 0.071 |
| AAPKKTRKAVRPQKLRA [RPL6B] | 2.8 ± 0.16 |
| AASWYGSFNEMKRNCGQ [RMP1] | 3.06 ± 0.052 |
| AATIGANFIFSPASGIV [RPT4] | 1.84 ± 0.1 |
| ADNGEEYLTLNDFNDLN [MED2] | 3.55 ± 0.12 |
| ADSAVNRQTLMFTATMT [PRP28] | 2.58 ± 0.046 |
| ADTKAPTFTFGSSALAD [YLR335W/NUP2] | 3.08 ± 0.048 |
| AEDLTIAAKTHILRISF [SIN4] | 2.85 ± 0.085 |
| AEEALEPSYIFEYLATV [PRE4] | 2.54 ± 0.061 |
| AEEQTKLQSQSLHTKNV [YLR018C/POM34] | 3.1 ± 0.071 |
| AEEVRNFALTTLIDLVK [ECM29] | 1.78 ± 0.073 |
| AEFKKRKIEAETRNGKV [YCS4] | 3.18 ± 0.1 |

| Sequence | protein stability index |
| --- | --- |
| AEHSQNKIDQSLQYIER [YJL041W/NSP1] | 3.21 ± 0.049 |
| AELNLPTVDEQRQYKVQ [SNF11] | 3.12 ± 0.092 |
| AELQSNLQVELLSEHDD [YGL100W/SEH1] | 2.62 ± 0.07 |
| AELVQKYIGEGSRMVRE [RPT6] | 2.65 ± 0.075 |
| AENDVIEATDLGNIASS [BRR2] | 3.19 ± 0.064 |
| AFAGSKNDEVLGLLLPI [RPN1] | 3.05 ± 0.17 |
| AFDVDRAKSCGVDAMSV [RPL1A] | 2.76 ± 0.091 |
| AFETHYRRLFAKRLIHG [CDC53] | 2.8 ± 0.09 |
| AFFREKGLVSQQLDSFN [RPB2] | 2.96 ± 0.1 |
| AFGSSATDISGELRDYI [YJR042W/NUP85] | 2.81 ± 0.11 |
| AFVKQKNDSLEKTINDL [YIL149C/MLP2] | 3.02 ± 0.14 |
| AGEFGLKNKKEIYRISF [RPS9A] | 3.08 ± 0.14 |
| AGFDPRDDEPKLYQTEP [PRE6] | 3.1 ± 0.05 |
| AGIVPVSANTPKSLNSN [SWI1] | 3.04 ± 0.048 |
| AGKWFDPVLDWRKSDRE [SIR4] | 2.71 ± 0.14 |
| AGNKVGQSEASLLNLLN [RPP0] | 2.67 ± 0.1 |
| AGVEDVYTQSNGKTRTL [RPS2] | 3.28 ± 0.066 |
| AHNKPSLFSKIKTFFTQ [YAR002W/NUP60] | 2.66 ± 0.064 |

Same assay, conditions: ubr1∆

| Sequence | protein stability index |
| --- | --- |
| AAAAVCEKWAASSWAKK [RPL14A] | 2.68 ± 0.058 |
| AAAEIADEPVKASLLLH [FAS2] | 1.17 ± 0.21 |
| AAFEKRYRVDLLNTDHT [RPO21] | 2.88 ± 0.077 |
| AAGAGAAAGAAMIDAGA [FAS2] | 2.99 ± 0.12 |
| AAGKRISHIEKRIESLQ [SMC1] | 3.08 ± 0.095 |
| AAGNASSLPPGEILLPD [SNF5] | 3.3 ± 0.053 |
| AAIRQPTRYVLIRNVGT [POP1] | 1.31 ± 0.053 |
| AALRTVKSLVDNMITGV [RPL9A] | 3.03 ± 0.075 |
| AASWYGSFNEMKRNCGQ [RMP1] | 3.21 ± 0.045 |
| AATIGANFIFSPASGIV [RPT4] | 2.18 ± 0.083 |
| ADNGEEYLTLNDFNDLN [MED2] | 3.27 ± 0.082 |
| ADSAVNRQTLMFTATMT [PRP28] | 2.65 ± 0.049 |
| ADTKAPTFTFGSSALAD [YLR335W/NUP2] | 3.11 ± 0.033 |
| AEEALEPSYIFEYLATV [PRE4] | 2.73 ± 0.045 |
| AEEQTKLQSQSLHTKNV [YLR018C/POM34] | 3.13 ± 0.049 |
| AEEVRNFALTTLIDLVK [ECM29] | 2 ± 0.059 |
| AEFKKRKIEAETRNGKV [YCS4] | 3.13 ± 0.094 |
| AEHSQNKIDQSLQYIER [YJL041W/NSP1] | 3.04 ± 0.048 |
| AELNLPTVDEQRQYKVQ [SNF11] | 3.31 ± 0.067 |
| AELQSNLQVELLSEHDD [YGL100W/SEH1] | 2.87 ± 0.061 |

| Sequence | protein stability index |
| --- | --- |
| AELVQKYIGEGSRMVRE [RPT6] | 2.33 ± 0.11 |
| AENDVIEATDLGNIASS [BRR2] | 3.27 ± 0.056 |
| AFAGSKNDEVLGLLLPI [RPN1] | 3.19 ± 0.13 |
| AFDVDRAKSCGVDAMSV [RPL1A] | 2.71 ± 0.055 |
| AFETHYRRLFAKRLIHG [CDC53] | 2.89 ± 0.071 |
| AFFREKGLVSQQLDSFN [RPB2] | 2.97 ± 0.087 |
| AFGSSATDISGELRDYI [YJR042W/NUP85] | 3.28 ± 0.083 |
| AFRTLRLARSEKKFRGI [RPL13A] | 3.3 ± 0.084 |
| AFSFGAKPDEKKNDEVS [YJL041W/NSP1] | 3.26 ± 0.17 |
| AFVKQKNDSLEKTINDL [YIL149C/MLP2] | 3.11 ± 0.12 |
| AFYQKGNKLVELMRIIS [SMC1] | 1.38 ± 0.25 |
| AGEFGLKNKKEIYRISF [RPS9A] | 2.77 ± 0.066 |
| AGFDPRDDEPKLYQTEP [PRE6] | 3.24 ± 0.07 |
| AGIVPVSANTPKSLNSN [SWI1] | 3.22 ± 0.043 |
| AGKWFDPVLDWRKSDRE [SIR4] | 3.18 ± 0.066 |
| AGNKVGQSEASLLNLLN [RPP0] | 2.95 ± 0.12 |
| AGVEDVYTQSNGKTRTL [RPS2] | 3.48 ± 0.057 |
| AHEIIKREEKAMTIYWD [CDC53] | 2.2 ± 0.05 |
| AHNKPSLFSKIKTFFTQ [YAR002W/NUP60] | 2.73 ± 0.065 |
